Legend:
[1] = test system: thio-S4497 HC v1-MP-LAFG-PABC-(piperazinoBOR) AAC-193
[2] = test system: thioFAB 4497 MP-LAFAA-QSY7
[3] = test system: thioFAB 4497 MP-LAFGA-QSY7

staphopain B
100%: Percent cleavage pH 5 [1] | Percent cleavage pH 7.2 [1] | Percent cleavage pH 7.2 [2] | Percent cleavage pH 7.2 [3]
